Measured values reported in patent US20220025056A1 (INNATE PHARMA, published 2022).
Numbering of substitutions follows the chain as printed. Values belong to the binder of their own block, whether it stands above or below them.

What was measured:
[1] = biological target: T1, human ILT2 (LILRB1) expressed at the surface of transfected cells (human, UniProt Q8NHL6 24-650); assay: flow cytometry titration on HEK293T cells transfected with wild-type ILT2
T1 construct: also called CHO-ILT2; CHO ILT2 cell line

[2] = biological target: T2, ILT-2_6xHis recombinant protein (human, UniProt Q8NHL6 24-458); assay: SPR, antibody captured on Protein-A, soluble ILT2 analyte
T2 construct: monomers purified by SEC; also called recombinant 6xHIS tagged ILT2; recombinant human ILT2 proteins
Protocol: (§1) Measurements were performed on a Biacore T200 apparatus (Biacore GE Healthcare) at 25° C. In all Biacore experiments HBS-EP+(Biacore GE Healthcare) and NaOH 10 mM served as running buffer and regeneration buffer respectively. Sensorgrams were analyzed with Biacore T100 Evaluation software. Protein-A was purchased from (GE Healthcare). Human ILT2 recombinant proteins were cloned, produced and purified at Innate Pharma. Protein-A proteins were immobilized covalently to carboxyl groups in the dextran layer on a Sensor Chip CM5. The chip surface was activated with EDC/NHS (N-ethyl-N′-(3-dimethylaminopropyl) carbodiimidehydrochloride and N-hydroxysuccinimide (Biacore GE Healthcare)). Protein-A was diluted to 10 μg/ml in coupling buffer (10 mM acetate, pH 5.6) and injected until the appropriate immobilization level was reached (i.e. 600 RU). Deactivation of the remaining activated groups was performed using 100 mM ethanolamine pH 8 (Biacore GE Healthcare). […] For blank subtraction, cycles were performed again replacing ILT2 proteins with running buffer. The monovalent affinity analysis was conducted following a regular Capture-Kinetic protocol as recommended by the manufacturer (Biacore GE Healthcare kinetic wizard). Seven serial dilutions of human ILT2 proteins, ranging from 1.95 nM to 250 nM were sequentially injected over the captured antibodies and allowed to dissociate for 10 min before regeneration. The entire sensorgram sets were fitted using the 1:1 kinetic binding model or two state reaction model, as a function of the profile of the curves.

[3] = biological target: T3, human ILT1 (LILRA2) on CHO cells (human, UniProt Q8N149 24-475); assay: flow cytometry, CHO transfectants
T3 construct: also called CHO ILT1 cell line

[4] = biological target: T4, human ILT4 (LILRB2) on CHO cells (human, UniProt Q8N423 23-597); assay: flow cytometry, CHO transfectants
T4 construct: also called CHO ILT4 cell line

[5] = biological target: T5, human ILT5 (LILRB3) on CHO cells (human, UniProt O75022 24-626); assay: flow cytometry, CHO transfectants
T5 construct: also called CHO ILT5 cell line

[6] = biological target: T6, human ILT7 (LILRA4) on CHO cells (human, UniProt P59901 28-494); assay: flow cytometry, CHO transfectants
T6 construct: also called CHO ILT7 cell line

[7] = biological target: T7, human ILT8 (LILRA6) on CHO cells (human, UniProt Q6PI73 24-477); assay: flow cytometry, CHO transfectants
T7 construct: also called CHO ILT8 cell line

[8] = biological target: T8, human ILT6 (LILRA3) on CHO cells (human, UniProt Q8N6C8 24-434); assay: flow cytometry, CHO transfectants
T8 construct: also called CHO ILT6 cell line; human ILT-6 polypeptide

[9] = biological target: T9, human ILT3 (LILRB4) on CHO cells (human, UniProt Q8NHJ6 24-443); assay: flow cytometry, CHO transfectants
T9 construct: also called CHO ILT3 cell line

[10] = biological target: T10, anchored ILT2 D3 domain protein (human); assay: flow cytometry on CHO cells expressing the anchored ILT2 D3 domain protein (SEQ ID NO: 48); stacked histograms, axis without numbers, no control histogram
T10 construct: on CHO cells; the entry includes leader remnant, V5 tag and CD24 GPI anchor signal

[11] = biological target: T1, human ILT2 (LILRB1) expressed at the …; assay: flow cytometry, CHO-ILT2 cells
Protocol: Cells were incubated with various concentrations of unlabeled anti-ILT2 antibodies from 30 μg/ml to 5×10-⁴ μg/ml, for 30 minutes at 4° C. After washes with staining buffer, cells were incubated for 30 min at 4° C. with Goat anti-human H+L AF488 secondary antibody (Jackson Immunoresearch #109-546-088) or Goat anti-mouse H+L AF488 secondary antibody for commercially available antibodies (Jackson Immuoresearch #115-545-146). Fluorescence was measured on an Accury C6 flow cytometer equipped with an HTFC plate loader.

[12] = biological target: T11, human ILT2 on primary NK cells (human, UniProt Q8NHL6 24-650); assay: flow cytometry, primary NK cells
T11 construct: whole, on cells

Mutant D4-1B = biological target: T12, Mutant D4-1B; assay: flow cytometry titration on HEK293T cells transfected with ILT2 mutant 4-1b
T12 construct: read as S304F; also called ILT2 mutant 4-1b; mutant 4-1b

[13] = biological target: T13, anchored ILT2 D1 domain protein (human); assay: flow cytometry on CHO cells expressing the anchored ILT2 D1 domain protein (SEQ ID NO: 46); stacked histograms, axis without numbers
T13 construct: on CHO cells; the entry includes leader remnant, V5 tag and CD24 GPI anchor signal

ILT2 mutant 4-2 = biological target: T14, ILT2 mutant 4-2 (human, UniProt Q8NHL6 24-650); assay: flow cytometry titration on HEK293T cells transfected with ILT2 mutant 4-2
T14 construct: transfected in HEK293T cells

ILT2 mutant 4-1 = biological target: T15, ILT2 mutant 4-1 (human, UniProt Q8NHL6 24-650); assay: flow cytometry titration on HEK293T cells transfected with ILT2 mutant 4-1
T15 construct: transfected in HEK293T cells

[14] = biological target: T11, human ILT2 on primary NK cells; assay: cell-based or functional assay
[15] = biological target: T16, anchored ILT2 D2 domain protein (human); assay: flow cytometry, CHO cells with anchored ILT2 domain proteins
T16 construct: on CHO cells; the entry includes leader remnant, V5 tag and CD24 GPI anchor signal

[16] = biological target: T17, anchored ILT2 D1-D2-D3 domain protein (human, UniProt Q8NHL6 24-321); assay: as above
T17 construct: on CHO cells; the entry includes leader remnant, V5 tag and CD24 GPI anchor signal

[17] = biological target: T18, anchored ILT2 D2-D3 domain protein (human, UniProt Q8NHL6 122-321); assay: as above
T18 construct: on CHO cells; the entry includes leader remnant, V5 tag and CD24 GPI anchor signal

[18] = biological target: T19, anchored ILT2 D1-D2 domain protein (human, UniProt Q8NHL6 24-222); assay: as above
T19 construct: on CHO cells; the entry includes leader remnant, V5 tag and CD24 GPI anchor signal

Mutant D4-4 = biological target: T20, Mutant D4-4; assay: flow cytometry titration on HEK293T cells transfected with ILT2 mutant 4-4
T20 construct: also called ILT2 mutant 4-4; mutant 4-4

ILT2 mutant 2 = biological target: T21, ILT2 mutant 2 (human, UniProt Q8NHL6 24-650); assay: flow cytometry titration on HEK293T cells transfected with ILT2 mutant 2
T21 construct: transfected in HEK293T cells; also called M2

[19] = biological target: T2, ILT-2_6xHis recombinant protein; assay: SPR, antibody captured on Protein-A, soluble ILT2 analyte; two state fit
Protocol: as §1, with “Seven serial dilutions of human ILT2 proteins, ranging from 1.95 nM to 250 nM were sequentially injected over the captured antibodies and allowed to dissociate for 10 min before regeneration. The entire sensorgram sets were fitted using the 1:1 kinetic binding model or two state reaction model, as a function of the profile of the curves.” left out

ILT2 mutant 1 = biological target: T22, ILT2 mutant 1 (human, UniProt Q8NHL6 24-650); assay: flow cytometry titration on HEK293T cells transfected with ILT2 mutant 1
T22 construct: transfected in HEK293T cells; also called M1

[20] = biological target: T23, anchored ILT2 D4 domain protein (human, UniProt Q8NHL6 322-650); assay: flow cytometry on CHO cells expressing the anchored ILT2 D4 domain protein (SEQ ID NO: 49); stacked histograms, axis without numbers
T23 construct: on CHO cells; the entry includes leader remnant, V5 tag, and the ILT2 transmembrane and cytoplasmic parts

[21] = biological target: T24, anchored ILT2 D2-D3-D4 domain protein (human, UniProt Q8NHL6 122-650); assay: flow cytometry, CHO cells with anchored ILT2 domain proteins
T24 construct: on CHO cells; the entry includes leader remnant, V5 tag, and the ILT2 transmembrane and cytoplasmic parts

[22] = biological target: T25, anchored ILT2 D3-D4 domain protein (human, UniProt Q8NHL6 223-650); assay: as above
T25 construct: on CHO cells; the entry includes leader remnant, V5 tag, and the ILT2 transmembrane and cytoplasmic parts

[23] = biological target: T23, anchored ILT2 D4 domain protein; assay: as above

T3 sequence (Q8N149 other isoform, or with tags, fused parts or gaps): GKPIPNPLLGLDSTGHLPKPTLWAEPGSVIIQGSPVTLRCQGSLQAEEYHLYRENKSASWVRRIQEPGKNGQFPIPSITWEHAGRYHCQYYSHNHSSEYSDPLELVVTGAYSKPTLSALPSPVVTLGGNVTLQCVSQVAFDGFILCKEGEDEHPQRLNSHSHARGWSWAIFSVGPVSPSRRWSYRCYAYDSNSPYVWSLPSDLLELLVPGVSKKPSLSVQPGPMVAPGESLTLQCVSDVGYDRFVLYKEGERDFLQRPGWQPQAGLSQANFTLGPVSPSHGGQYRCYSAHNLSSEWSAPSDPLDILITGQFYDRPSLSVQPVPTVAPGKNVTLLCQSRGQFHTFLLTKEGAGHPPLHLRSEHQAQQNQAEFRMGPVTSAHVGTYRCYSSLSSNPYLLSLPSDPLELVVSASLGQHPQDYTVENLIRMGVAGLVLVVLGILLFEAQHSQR
T9 sequence (Q8NHJ6 other isoform, or with tags, fused parts or gaps): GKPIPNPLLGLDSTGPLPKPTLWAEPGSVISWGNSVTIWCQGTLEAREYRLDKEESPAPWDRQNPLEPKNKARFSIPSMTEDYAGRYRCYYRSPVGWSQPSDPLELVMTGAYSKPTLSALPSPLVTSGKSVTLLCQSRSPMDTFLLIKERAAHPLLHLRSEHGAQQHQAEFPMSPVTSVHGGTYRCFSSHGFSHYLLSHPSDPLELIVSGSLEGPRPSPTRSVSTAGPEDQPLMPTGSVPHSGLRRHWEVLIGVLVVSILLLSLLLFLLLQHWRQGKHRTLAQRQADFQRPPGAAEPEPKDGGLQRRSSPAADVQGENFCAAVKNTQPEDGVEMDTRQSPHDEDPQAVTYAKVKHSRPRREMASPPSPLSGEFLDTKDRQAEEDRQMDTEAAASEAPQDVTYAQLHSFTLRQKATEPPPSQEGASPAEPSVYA
T16 sequence (chain, as listed by the source limits assumed): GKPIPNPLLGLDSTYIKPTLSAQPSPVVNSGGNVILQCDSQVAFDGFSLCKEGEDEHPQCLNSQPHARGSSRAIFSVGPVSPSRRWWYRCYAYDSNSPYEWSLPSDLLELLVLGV
T18 sequence (Q8NHL6 other isoform, or with tags, fused parts or gaps limits assumed): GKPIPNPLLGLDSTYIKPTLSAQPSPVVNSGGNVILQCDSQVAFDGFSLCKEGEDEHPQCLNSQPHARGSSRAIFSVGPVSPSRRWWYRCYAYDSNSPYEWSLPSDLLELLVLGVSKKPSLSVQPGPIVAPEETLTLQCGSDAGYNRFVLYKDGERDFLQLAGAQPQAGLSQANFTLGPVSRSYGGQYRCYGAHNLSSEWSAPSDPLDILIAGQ
T2 sequence (Q8NHL6 other isoform, or with tags, fused parts or gaps limits assumed): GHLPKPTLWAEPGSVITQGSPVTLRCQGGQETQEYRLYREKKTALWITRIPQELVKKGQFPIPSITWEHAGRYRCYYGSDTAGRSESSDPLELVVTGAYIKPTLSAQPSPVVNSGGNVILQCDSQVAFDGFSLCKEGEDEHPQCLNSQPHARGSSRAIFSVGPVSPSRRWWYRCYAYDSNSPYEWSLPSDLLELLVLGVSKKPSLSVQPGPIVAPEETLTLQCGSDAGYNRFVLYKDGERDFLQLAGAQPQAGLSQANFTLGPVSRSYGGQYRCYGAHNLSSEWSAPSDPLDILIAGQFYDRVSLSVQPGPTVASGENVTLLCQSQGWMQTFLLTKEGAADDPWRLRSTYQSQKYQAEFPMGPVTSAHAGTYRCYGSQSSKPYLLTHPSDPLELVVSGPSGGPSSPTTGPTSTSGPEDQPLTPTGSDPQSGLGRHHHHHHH
T6 sequence (P59901 other isoform, or with tags, fused parts or gaps): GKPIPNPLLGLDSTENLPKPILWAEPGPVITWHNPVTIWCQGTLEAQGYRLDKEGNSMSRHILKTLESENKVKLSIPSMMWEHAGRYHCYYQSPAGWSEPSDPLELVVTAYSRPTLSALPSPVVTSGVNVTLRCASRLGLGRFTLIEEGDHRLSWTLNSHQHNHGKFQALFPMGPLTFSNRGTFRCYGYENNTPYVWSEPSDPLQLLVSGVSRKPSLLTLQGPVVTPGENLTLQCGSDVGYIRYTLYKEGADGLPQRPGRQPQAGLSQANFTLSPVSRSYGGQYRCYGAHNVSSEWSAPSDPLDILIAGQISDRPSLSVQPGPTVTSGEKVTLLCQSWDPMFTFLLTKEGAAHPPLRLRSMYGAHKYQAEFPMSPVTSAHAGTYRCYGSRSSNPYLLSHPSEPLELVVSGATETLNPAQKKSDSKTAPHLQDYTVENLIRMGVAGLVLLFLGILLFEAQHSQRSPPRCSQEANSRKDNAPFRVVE
T23 sequence (Q8NHL6 other isoform, or with tags, fused parts or gaps limits assumed): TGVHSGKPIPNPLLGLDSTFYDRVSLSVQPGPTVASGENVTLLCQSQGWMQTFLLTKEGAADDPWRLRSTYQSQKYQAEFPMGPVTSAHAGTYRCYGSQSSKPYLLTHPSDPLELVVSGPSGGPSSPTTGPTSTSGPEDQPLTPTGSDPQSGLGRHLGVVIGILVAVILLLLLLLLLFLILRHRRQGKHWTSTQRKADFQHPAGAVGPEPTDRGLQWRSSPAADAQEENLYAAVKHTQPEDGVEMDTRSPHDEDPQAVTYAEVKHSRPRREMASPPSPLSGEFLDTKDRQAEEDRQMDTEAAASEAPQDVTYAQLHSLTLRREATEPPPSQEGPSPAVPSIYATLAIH
T11 sequence (Q8NHL6 24-650): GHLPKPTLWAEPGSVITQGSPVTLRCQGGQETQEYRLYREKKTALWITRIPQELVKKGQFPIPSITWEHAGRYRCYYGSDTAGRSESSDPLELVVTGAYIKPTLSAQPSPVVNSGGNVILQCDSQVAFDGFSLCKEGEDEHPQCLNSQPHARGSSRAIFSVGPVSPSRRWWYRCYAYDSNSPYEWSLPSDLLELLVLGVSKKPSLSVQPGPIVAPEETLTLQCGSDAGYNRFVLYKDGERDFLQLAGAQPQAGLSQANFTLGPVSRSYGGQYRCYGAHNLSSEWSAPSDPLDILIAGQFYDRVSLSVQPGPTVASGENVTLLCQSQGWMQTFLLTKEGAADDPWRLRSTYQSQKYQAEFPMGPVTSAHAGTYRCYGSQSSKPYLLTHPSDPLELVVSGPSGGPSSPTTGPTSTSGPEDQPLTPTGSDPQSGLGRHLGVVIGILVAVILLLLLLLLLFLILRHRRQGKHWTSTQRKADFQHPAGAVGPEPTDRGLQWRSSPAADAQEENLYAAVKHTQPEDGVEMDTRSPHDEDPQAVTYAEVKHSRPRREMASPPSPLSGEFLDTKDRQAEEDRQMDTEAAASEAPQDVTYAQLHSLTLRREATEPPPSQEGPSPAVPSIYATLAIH
T1 sequence (Q8NHL6 24-650): as above
T7 sequence (Q6PI73 other isoform, or with tags, fused parts or gaps): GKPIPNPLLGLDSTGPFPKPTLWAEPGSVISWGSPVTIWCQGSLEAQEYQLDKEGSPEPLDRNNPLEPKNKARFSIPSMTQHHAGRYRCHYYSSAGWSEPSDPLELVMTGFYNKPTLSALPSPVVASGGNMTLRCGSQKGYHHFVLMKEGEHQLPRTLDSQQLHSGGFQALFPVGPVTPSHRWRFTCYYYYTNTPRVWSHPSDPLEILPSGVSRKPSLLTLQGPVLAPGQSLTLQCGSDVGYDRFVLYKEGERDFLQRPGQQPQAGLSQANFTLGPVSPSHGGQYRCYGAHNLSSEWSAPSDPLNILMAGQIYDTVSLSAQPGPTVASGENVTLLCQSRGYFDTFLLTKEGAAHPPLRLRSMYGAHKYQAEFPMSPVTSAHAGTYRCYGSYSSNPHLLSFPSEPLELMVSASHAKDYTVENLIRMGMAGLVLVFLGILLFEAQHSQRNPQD
T10 sequence (chain, as listed by the source limits assumed): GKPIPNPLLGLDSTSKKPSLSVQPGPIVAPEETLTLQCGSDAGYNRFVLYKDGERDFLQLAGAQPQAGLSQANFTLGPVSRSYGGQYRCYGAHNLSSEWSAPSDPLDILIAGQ
T8 sequence (Q8N6C8 other isoform, or with tags, fused parts or gaps): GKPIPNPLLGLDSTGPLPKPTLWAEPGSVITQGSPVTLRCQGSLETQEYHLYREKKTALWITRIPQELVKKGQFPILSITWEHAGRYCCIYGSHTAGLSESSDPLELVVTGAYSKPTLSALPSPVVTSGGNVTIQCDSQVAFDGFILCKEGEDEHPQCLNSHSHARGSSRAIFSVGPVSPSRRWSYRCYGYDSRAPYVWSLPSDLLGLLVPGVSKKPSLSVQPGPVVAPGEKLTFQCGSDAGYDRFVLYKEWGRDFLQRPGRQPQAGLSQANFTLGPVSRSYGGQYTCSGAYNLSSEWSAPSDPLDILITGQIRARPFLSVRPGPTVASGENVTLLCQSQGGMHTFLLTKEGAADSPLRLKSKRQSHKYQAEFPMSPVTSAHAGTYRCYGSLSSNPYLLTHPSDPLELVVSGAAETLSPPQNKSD
T13 sequence (chain, as listed by the source limits assumed): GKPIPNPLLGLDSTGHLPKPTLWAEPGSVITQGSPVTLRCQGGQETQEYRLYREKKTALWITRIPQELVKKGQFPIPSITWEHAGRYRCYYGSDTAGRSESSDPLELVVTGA

B1: 26D8 (antibody, human IgG1, V domains shown)
VH: QVQLQQSGAELVKPGASVKLSCKASGYTFTEHTIHWIKQRSGQGLEWIGWFYPGSGSMKYNEKFKDKATLTADKSSSTVYMELTRLTSEDSAVYFCARHTNWDFDYWGQGTTLTVSS
VL: DIVLTQSPASLAVSLGQRATISCKASQSVDYGGDSYMNWYQQKPGQPPKLLIYAASNLESGIPARFSGSGSGTDLTLNIHPVEEDDAAMYYCQQSNEEPWTFGGGTKLEIK
EC50 (read off the curve) [1]: ~0.3 µg/mL
Kd [2]: 0.4 nM
koff [2]: 0.00022 s⁻¹
kon [2]: 620000 M⁻¹ s⁻¹
binding result [3]: no binding
binding result [4]: no binding
binding result [5]: no binding
binding result [6]: no binding
binding result [7]: no binding
binding result [8]: no binding
binding result [9]: no binding
binding result [10]: no binding
EC50 [11]: 0.15 µg/mL
EC50 [12]: 0.11 µg/mL
binding result (Mutant D4-1B): binds
binding result [13]: no binding
binding result (ILT2 mutant 4-2): no binding (tested: about 20 µg/ml)
binding result (ILT2 mutant 4-1): no binding (tested: about 20 µg/ml)
CD137 expression on ILT2-positive primary NK cells [14]: 2 fold
CD137 expression on NK cells of urothelial cancer patients with HLA-A2-expressing B cells [14]: > 2 fold
binding result [15]: no binding
binding result [16]: no binding
binding result [17]: no binding
binding result [18]: no binding
EC50 (read off the curve) (Mutant D4-4): ~0.2 µg/mL

B2: 27H5 (antibody, human IgG1, V domains shown)
VH: QVQLKESGPGLVAPSQSLSITCTVSGFSLTSYGVSWVRQPPGKGLEWLGVIWGDGNTNYHSALISRLSISKDNSKSQVFLKLNSLQTDDTATYYCARTNWDGWFAYWGQGTLVTVSA
VL: DIVMTQSHKFMSTSVGDRVSITCKASQDVGTAVAWYQQKPGQSPKLLIYWASTRHTGVPDRFTGSGSGTDFTLTISNVQSEDLADYFCQQYRSYPLGTFGGGTKLEIK
binding result [3]: no binding
binding result [4]: no binding
binding result [5]: no binding
binding result [6]: no binding
binding result [7]: no binding
binding result [8]: no binding
binding result [9]: no binding
binding result (ILT2 mutant 2): no binding (tested: about 20 µg/ml)
binding result [10]: no binding
EC50 [11]: 0.52 µg/mL
Kd [19]: 13.9 nM
binding result (ILT2 mutant 1): binds
binding result [20]: no binding
binding result [15]: no binding
binding result [21]: no binding
binding result [22]: no binding
binding result [17]: no binding

B5: 27C10 (antibody, human IgG1, V domains shown)
VH: EVQLQESGPGLVKPSQSLSLTCSVTGYSITSGYYWNWIRQFPENKLEWMGYIRYDGSNNYNPSLNNRISITRDASKNQFFLKLNSVTTEDTATYYCARGWLLWFYAVDYWGQGTSVTVSS
VL: DVVMTQTPLSLPVSLGDQASISCRSSQSIVHTNGNTYLEWYLQKSGQSPKLLIYKVSNRLSGVPDRFSGSGSGTDFTLKISRVEAEDLGIYYCFQGSHVPWTFGGGTKLEIK
koff [2]: 0.0003 s⁻¹
binding result [3]: no binding
binding result [4]: no binding
binding result [5]: no binding
binding result [6]: no binding
binding result [7]: no binding
binding result [8]: no binding
binding result [9]: no binding
binding result [10]: no binding
EC50 [11]: 0.25 µg/mL
EC50 [12]: 0.33 µg/mL
binding result (Mutant D4-1B): binds
binding result [13]: no binding
binding result (ILT2 mutant 4-2): binds
EC50 (read off the curve) (ILT2 mutant 4-1): ~0.4 µg/mL
binding result [15]: no binding
binding result [16]: no binding
binding result [17]: no binding
binding result [18]: no binding
binding result (Mutant D4-4): binds

Results, then the binder that gave them:

binding result [15]: no binding
binding result [23]: no binding
B3: 3A7A (antibody, human IgG1, V domains shown)
VH: QVQLKESGPELVKPGTSVKISCKASGYNFRNYYIQWVKQRPGQGLEWIGWIFPGNNETNYNEKFKGKATLSADTSSTTAYMQLSSLTSEDSAVYFCARSWNYDARWGYWGQGTTVTVSS
VL: DVVMTQTPASLAVSLGQRATISCRASEIIDNYGISFIHWYQQKPGQPPKLLIYRASNLESGIPARFSGSGSRTDSTLTINPVGADDVATYYCQQSNEDPFTFGSGTKLELK

binding result [15]: no binding
binding result [23]: no binding
B4: 1E4C (antibody, human IgG1, V domains shown)
VH: QRELQQSGPELVKPGASVNISCKASGYSFTNHYINWVKQRPGQGLEWIGWIFPGNGDTNYNEKFKGKATLTADTSSSTAYMQLSSLTSEDSAVYFCARTWNYDARWGYWGQGTTVTVSS
VL: B3 VL with S10F, I28S, N31S, I37M, L50V, A55T, S75F, G83E, L110I
